Laboratory results: patent US20240343803A1 (SHANDONG SIMCERE BIOPHARMACEUTICAL, published 2024)
Positions count from the first letter of the chain named.

T1: Fusion protein of extracellular domain of human TIGIT and His-tag (human TIGIT ECD-his) (human)
T1 chain: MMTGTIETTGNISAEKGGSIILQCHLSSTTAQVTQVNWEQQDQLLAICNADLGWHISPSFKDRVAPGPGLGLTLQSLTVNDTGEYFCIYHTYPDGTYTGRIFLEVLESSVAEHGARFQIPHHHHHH

T2: Full-length human TIGIT on CHO-K1 cells (CHO-K1 human TIGIT) (human, UniProt Q495A1 22-244)
T2 construct: NCBI XP_024309156.1; the entry includes the signal peptide (limits not recoverable); The strain (high, medium, low) is named under assay; also called high expression strain 1D2; medium expression strain 2D10
T2 sequence: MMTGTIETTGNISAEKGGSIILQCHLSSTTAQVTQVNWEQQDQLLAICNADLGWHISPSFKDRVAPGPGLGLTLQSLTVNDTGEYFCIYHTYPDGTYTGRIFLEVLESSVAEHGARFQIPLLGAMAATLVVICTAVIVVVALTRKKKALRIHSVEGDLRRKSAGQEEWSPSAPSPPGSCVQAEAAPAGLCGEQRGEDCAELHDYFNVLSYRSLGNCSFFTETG

T3: Fusion protein of extracellular domain of human TIGIT and mouse IgG2a Fc fragment (human TIGIT ECD-mFc) (human)
T3 construct: The entry includes the signal peptide (limits not recoverable) and the mouse IgG2a Fc
T3 chain: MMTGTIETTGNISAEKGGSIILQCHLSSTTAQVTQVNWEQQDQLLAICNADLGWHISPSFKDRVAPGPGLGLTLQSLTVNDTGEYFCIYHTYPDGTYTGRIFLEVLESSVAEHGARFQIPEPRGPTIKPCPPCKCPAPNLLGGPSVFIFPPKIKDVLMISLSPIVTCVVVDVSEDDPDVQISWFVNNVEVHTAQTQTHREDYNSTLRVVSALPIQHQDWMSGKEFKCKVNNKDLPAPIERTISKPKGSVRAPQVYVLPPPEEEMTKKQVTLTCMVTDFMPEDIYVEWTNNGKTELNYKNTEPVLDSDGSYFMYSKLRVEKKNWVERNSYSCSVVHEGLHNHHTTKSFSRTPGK

B1: TIGIT-CHI-070 (antibody, V domains shown)
VH: QVQLQQPGTELVKPGASVKLSCRASGYTFTNYYMHWVKQRPGRGLEWIGRIDPDSGGSKYNEKFKSKATLTVDKLSSTAYMQLSSLTSEDSAVYYCAREGHYGFYSDYWGQGTTLTVSS
VL: DIQMTQSPASLSASVGETVTITCRVSENIYSYLAWYQQKQGKSPQLLVYNAKTLAEGVPSRFSGSGSGTQFSLKINSLQPEDFGNYYCQHHYGNPLTFGAGTKLDLK
notes: Human-mouse chimeric antibody
B2: TIGIT-CHI-006 (antibody, V domains shown)
VH: EVQLQESGPGLAKPSQTPSLTCSVTGYSMTSDYWNWIRKFPGNKLEYMGYISYSGRTYYNPSLKSRISITRDTSKNQFYLQLNSVTTEDTATYYCARGDYSNYGGAMYDWGQGTSVTVSS
VL: DIVMTQSHKFMSTSVGDRVSITCRASQGVSTTIAWYQQKPGQSPKLLIYSASYRYTGVPDRFTGSGSGTDFTFTISGVQAEDLAVYYCQQYYSSPFTFGGGTKLEIK
notes: Human-mouse chimeric antibody
B3: TIGIT-005-H2L1a (antibody, V domains shown)
VH: EVQLVQSGAEVKKPGASVKVSCKASGYAFTNYLIEWVRQAPGQRLEWMGVINPGSGGTNYKEKFKGRVTITADKSSSTAYMELSSLRSEDTAVYYCARGEYFFFDYWGQGTTVTVSS
VL: DIVMTQSPDSLAVSLGERATINCKASQHVSQGVAWYQHKPGQSPKLLIYSASYRYTGVPDRFSGSGSGTDFTLTISSLQAEDVAVYYCQQHYNTPHTFGGGTKVEIK
notes: Humanized anti-TIGIT antibody with NG-site mutation in VL
B4: TIGIT-005-H2L1c (antibody, V domains shown)
VH: B3 VH
VL: B3 VL with Q31D
notes: as for B3
B5: TIGIT-005-H2L1b (antibody, V domains shown)
VH: B3 VH
VL: B3 VL with Q31T
notes: as for B3

Target: T1, Fusion protein of extracellular domain …
Test: BIAcore; reference itself

Fold change vs chimeric antibodies (KD) [fold]	Binder
1	B1
1	B2

Target: T1, Fusion protein of extracellular domain …
Test: BIAcore

Kd [nM]	koff [s⁻¹]	kon [M⁻¹ s⁻¹]	Binder
3.71	0.0105	2.83e+06	B3
0.184	0.000459	2.49e+06	B4
0.734	0.00248	3.38e+06	B5
0.098	0.000145	1.48e+06	B1
0.0774	0.000162	2.09e+06	B2

Each binder was assayed against T2, Full-length human TIGIT on CHO-K1 cells … (assay: cell binding, CHO-K1 human TIGIT high expression strain).
Summary of the method: (§1)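 Binding was measured by flow cytometry after a 60-minute, 4° C incubation of the antibodies with 2×10⁵ CHO-K1 cells displaying full-length human or cynomolgus monkey TIGIT. Antibody titration: 12 points, threefold serial dilution from 80 nM, in 1% BSA-PBS.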

EC50 [nM]	Binder
0.0129	B3
0.0246	B4
0.0279	B5
0.033	B1
0.0299	B2

Each binder was assayed against T4, Full-length cynomolgus monkey TIGIT on CHO-K1 cells (CHO-K1 cynomolgus monkey TIGIT) (cynomolgus monkey) (assay: cell binding, CHO-K1 cynomolgus monkey TIGIT).
T4 construct: NCBI XP_015300911.1
T4 sequence (chain, as listed by the source limits assumed): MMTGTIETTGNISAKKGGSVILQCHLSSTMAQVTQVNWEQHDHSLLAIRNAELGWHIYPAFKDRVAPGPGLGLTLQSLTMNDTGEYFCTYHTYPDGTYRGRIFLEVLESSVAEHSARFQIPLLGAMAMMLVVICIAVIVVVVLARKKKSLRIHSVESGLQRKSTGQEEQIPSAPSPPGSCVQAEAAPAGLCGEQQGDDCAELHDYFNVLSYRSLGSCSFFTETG
Summary of the method: as §1

EC50 [nM]	Binder
0.0561	B3
0.0673	B4
0.0368	B5
0.0741	B1
0.15	B2

Target: T1, Fusion protein of extracellular domain …
Test: BIAcore; KD ratio, by the numbers to TIGIT-005-H2L1 of r33

Fold change vs chimeric antibodies (KD) [fold]	Binder
50	B3
2.48	B4
9.89	B5

The binders below were run against T5, Fusion protein of extracellular domain of cynomolgus monkey TIGIT and mouse IgG2a Fc fragment (cynomolgus … (cynomolgus monkey)) (assay: ELISA, cynomolgus monkey TIGIT ECD-mFc).
T5 construct: The entry includes the signal peptide (limits not recoverable) and the mouse IgG2a Fc
T5 sequence (chain, as listed by the source limits assumed): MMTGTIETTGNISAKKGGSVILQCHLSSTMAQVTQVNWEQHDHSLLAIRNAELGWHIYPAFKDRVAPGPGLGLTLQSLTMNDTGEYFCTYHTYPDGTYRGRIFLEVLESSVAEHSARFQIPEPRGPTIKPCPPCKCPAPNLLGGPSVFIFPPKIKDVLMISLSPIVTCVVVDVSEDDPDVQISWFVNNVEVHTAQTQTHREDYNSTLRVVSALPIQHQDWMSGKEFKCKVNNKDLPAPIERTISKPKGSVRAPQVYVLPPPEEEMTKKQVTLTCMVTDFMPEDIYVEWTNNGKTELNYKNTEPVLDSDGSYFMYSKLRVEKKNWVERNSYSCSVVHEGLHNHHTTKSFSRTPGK
Summary of the method: (§2)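 Antibodies diluted to 13 nM in 1% BSA, then 3-fold serial dilution for 12 concentrations, incubated with milk-blocked plates at 37° C for 1.5-2 h. Bound antibody detected with HRP-labelled secondary antibody (1:5000, 37° C, 1 h) and TMB, stopped with 1M HCl; OD450 nm read.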

EC50 [nM]	Binder
0.0357	B3
0.0296	B4
0.032	B5
0.0184	B1
0.0258	B2

Target: T3, Fusion protein of extracellular domain …
Test: ELISA, human TIGIT ECD-mFc
Summary of the method: as §2

EC50 [nM]	Binder
0.0289	B3
0.0268	B4
0.0238	B5
0.0159	B1
0.0152	B2

These binders were tested against T6, Fusion protein of extracellular domain of human TIGIT and human IgG1 Fc fragment (human TIGIT ECD-hFc) (human) (assay: blocking of TIGIT ECD-hFc binding to CHO-K1 CD155 cells).
T6 construct: The entry includes the signal peptide (limits not recoverable) and the human IgG1 Fc
T6 sequence (chain, as listed by the source limits assumed): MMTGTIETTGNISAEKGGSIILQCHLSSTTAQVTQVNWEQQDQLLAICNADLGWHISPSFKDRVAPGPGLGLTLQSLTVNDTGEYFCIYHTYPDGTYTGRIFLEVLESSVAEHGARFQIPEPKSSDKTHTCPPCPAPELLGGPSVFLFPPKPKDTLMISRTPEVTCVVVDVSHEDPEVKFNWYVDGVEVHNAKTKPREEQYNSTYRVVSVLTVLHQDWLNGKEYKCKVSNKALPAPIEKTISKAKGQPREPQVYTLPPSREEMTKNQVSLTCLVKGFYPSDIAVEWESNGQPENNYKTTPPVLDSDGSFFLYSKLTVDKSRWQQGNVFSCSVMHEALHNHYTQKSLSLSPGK
Summary of the method: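 Cell-based ELISA on CHO-K1 CD155 cells, cultured overnight, fixed and blocked with 5% skim milk-PBS. Antibodies were premixed for 0.5 h with human TIGIT ECD-hFc (working concentration 30 ng/mL), then added and held at 37° C for 1.5-2 h. Bound TIGIT was detected with HRP secondary antibody (1:5000, 37° C, 1 h) and TMB, read as OD450 nm. IC50 came from the inhibition curves.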

IC50 [nM]	Binder
0.717	B3
0.347	B4
0.358	B5
0.637	B1
0.579	B2
